Measured values taken from patent US20250009780A1, “AGENTS ENCODING CLDN6 AND CD3 BINDING ELEMENTS FOR TREATING CLDN6-POSITIVE CANCERS” (BIONTECH SE, priority 2021, published 2025).

Target: human CD3 (human) (UniProt P09693)
Assay: cell-based or functional assay

Chain of human CD3 (human) (chain, as listed by the source, chain 1 of 3): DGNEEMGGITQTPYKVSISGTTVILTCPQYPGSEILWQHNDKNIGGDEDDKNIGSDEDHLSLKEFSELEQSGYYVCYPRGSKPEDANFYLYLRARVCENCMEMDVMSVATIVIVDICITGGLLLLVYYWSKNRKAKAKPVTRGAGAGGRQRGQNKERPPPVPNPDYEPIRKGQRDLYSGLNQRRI
Chain of human CD3 (human) (P09693 23-182, chain 2 of 3): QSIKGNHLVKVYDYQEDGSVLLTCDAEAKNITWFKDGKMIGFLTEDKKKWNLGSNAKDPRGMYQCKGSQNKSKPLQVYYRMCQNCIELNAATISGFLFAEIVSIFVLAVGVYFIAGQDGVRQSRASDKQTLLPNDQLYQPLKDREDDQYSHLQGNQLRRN
Chain of human CD3 (human) (P04234 22-171, chain 3 of 3): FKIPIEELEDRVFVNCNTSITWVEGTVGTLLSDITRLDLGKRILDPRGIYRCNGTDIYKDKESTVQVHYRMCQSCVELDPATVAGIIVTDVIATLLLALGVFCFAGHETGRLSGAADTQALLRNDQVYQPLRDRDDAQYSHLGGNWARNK

- T-cell activation (CD69/CD25, flow cytometry, 48 h): > 50%
Substance: OKT3 antibody
